From US20230220085A1 (BRIGHAM AND WOMEN S HOSPITAL, published 2023)

Key:
[1] = biological target: T1, Recombinant human ALK1-Fc (ALK1 extracellular domain-IgG Fc fusion protein) (human, UniProt P37023 22-118); test: BLI, immobilized ALK1, FIG. 4D
T1 construct: extracellular domain; Bought reagent (R&D #370AL is named for the luciferase assay); also called immobilized ALK1; ACVRL1; not shown: IgG Fc of the bought fusion protein (captured on anti-human IgG Fc sensors)
Method: (§1) To characterize the biochemical interactions of the scFv clones with recombinant human ALK1 and BMPR2 receptors, we used Bio-Layer Interferometry (Octet Red 384, ForteBio). Receptors, expressed as IgG Fc fusion proteins (i.e., ALK1-Fc, and BMPR2-Fc) were immobilized onto Anti-Human IgG Fc Capture Sensors (ForteBio, #18-0015) at a concentration of 10 µg/mL in an equilibration buffer of HEPES 20 mM (GIBCO #15630), 0.05% Tween-20 (Promega #H5151), and Imidazole 25 mM (SIGMA #10250) in PBS. All the clones were tested at different ranges of concentration in equilibration buffer: 50 nM, 100 nM, 200 nM, and 400 nM. The ForteBio program methodology was set as follows: Baseline equilibration of 60 s, loading time of 60 s, washing time of 120 s, association time of 300 s, and dissociation time of 600 s. The binding kinetics were analyzed using the ForteBio data analysis software.

[2] = biological target: T2, Recombinant human BMPR2-Fc (BMPR2 extracellular domain-IgG Fc fusion protein) (human, UniProt Q13873 27-150); test: BLI (Octet Red), FIG. 2B
T2 construct: extracellular domain; also called immobilized BMPR2; BMPRII; not shown: IgG Fc of the fusion protein (captured on anti-human IgG Fc sensors)
T2 sequence (looked up): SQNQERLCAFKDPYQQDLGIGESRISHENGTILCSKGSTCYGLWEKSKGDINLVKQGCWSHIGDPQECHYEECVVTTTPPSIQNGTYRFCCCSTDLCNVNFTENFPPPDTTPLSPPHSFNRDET
Method: as §1
(§2) Bio-Layer Interferometry was used to determine the affinities of scFv clones for human BMPR2 and ALK1 receptors. The binding kinetics of scFv clones ALK1.3 (FIG. 1A) and ALK1.8 (FIG. 1B) versus immobilized ALK1; and BMPR2.12 (FIG. 1C) and BMPR2.23 (FIG. 1D) against BMPR2 are shown.

[3] = biological target: T1, Recombinant human ALK1-Fc (ALK1 …); test: BLI (Octet Red), immobilized ALK1, FIG. 2A
Method: as §1, §2

[4] = biological target: T2, Recombinant human BMPR2-Fc (BMPR2 …); test: BLI, FIG. 4C
Method: as §1

[5] = biological target: T1, Recombinant human ALK1-Fc (ALK1 …); test: BLI, immobilized ALK1, FIG. 4B
Method: as §1

[6] = biological target: T1, Recombinant human ALK1-Fc (ALK1 …); test: BLI (Octet Red), FIG. 2A
Method: as §1, §2

[7] = biological target: T2, Recombinant human BMPR2-Fc (BMPR2 …); test: BLI, immobilized BMPR2, FIG. 4C
Method: as §1

[8] = biological target: T1, Recombinant human ALK1-Fc (ALK1 …); test: BLI, FIG. 4B
Method: as §1

T1 sequence (P37023 22-118): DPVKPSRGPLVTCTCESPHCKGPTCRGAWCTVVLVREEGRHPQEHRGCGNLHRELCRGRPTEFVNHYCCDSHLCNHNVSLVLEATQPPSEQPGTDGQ

B1: scFv clone BMPR2.23 (anti-BMPR2/BMPRII) (scFv)
scFv: QAVLTQPSSLSASPGASASLTCTLHSGINVATYRIYWYQQKPGSPPQYLLTYKSDLDKHQGSGVPSRFSGSKDASANAGILLISGLQSDDEGDYYCLIWHDYVWYFGGGTKVTVLGEGKSSGSGSESKASEVQLLESGGGLVQPGRSLRLSCAASGFTFDDYAMHWVRQAPGKGLEWVSGISWNSGSIGYADSVKGRFTISRDNAKNSLYLQMNSLRAEDTALYYCAKGGWGSSTHYYYGMDVWGQGTTVTVSS
- binding result [1]: no binding

B2: Biotinylated scFv BMPR2.23 (scFv)
scFv: B1 scFv
modifications: biotinylated (DSB-X Biotin Protein Labeling Kit; average 1.5-2 sites per molecule; sites not stated)
notes: BMPR2.23 scFv after biotinylation
- binding result [1]: no binding

B3: scFv clone BMPR2.12 (anti-BMPR2/BMPRII) (scFv)
scFv: QSALTQPASVSGSPGQSITISCTGTSSDVGGYKSVSWYQQHPGKAPKLMIYDVSNRPSGVSDRFSGSKSGNTASLTISGLQAEDEADYYCSSYTSSSSLWVFGGGTKLTVLGEGKSSGSGSESKASQVQLVQSGAEVKKPGSSVKVSCKASGGTFSSYAISWVRQAPGQGLEWMGRIIPILGIANYAQKFQGRVTMTEDTSTDTAYMELSSLRSEDTAVYYCATDLWGVGADWGQGTLVTVSS
notes: Human scFv from phage display, VL-linker-VH, expressed in E. coli
- binding result [2]: binds
- binding result [3]: no binding

B4: Biotinylated scFv BMPR2.12 (scFv)
scFv: B3 scFv
modifications: biotinylated (DSB-X Biotin Protein Labeling Kit; average 1.5-2 sites per molecule; sites not stated)
notes: BMPR2.12 scFv after low substitution ratio biotinylation; also called BMPR2.12-Bio
- binding result [4]: binds
- binding result [5]: no binding

B5: scFv clone ALK1.3 (anti-ACVRL1/ALK1) (scFv)
scFv: QSALTQPASVSGSPGQSITISCAGTSSDVGTYNYVSWYQQHPGKAPKLMIYDVSKRPSGVPDRFSGSKSGNTASLTISGLQAEDEADYYCYSYTTSSTWVFGGGTKVTVLGEGKSSGSGSESKASQVQLQESGPGLLKPSQTLSLTCTVSGDSIGSGDYYWSWIRQPPGKGLEWIGYSYHTGSTDYNPSLKSRVSISVDRSKNQFSLKLRSVTAADTAVYYCARDYYGYLGYWGQGTLVTVSS
notes: as for B3
- binding result [6]: binds
- binding result [7]: no binding

B6: Biotinylated scFv ALK1.3 (scFv)
scFv: B5 scFv
modifications: biotinylated (DSB-X Biotin Protein Labeling Kit; average 1.5-2 sites per molecule; sites not stated)
notes: ALK1.3 scFv after low substitution ratio biotinylation; also called ALK1.3-Bio
- binding result [8]: binds
- binding result [7]: no binding
